# Data: PMC11764342, “A Novel Nitrite Reductase from Acinetobacter haemolyticus for Efficient Degradation of Nitrite” (Biomolecules, 2025)
# B1: AhNiR (Acinetobacter haemolyticus CIP 64.3 = MTCC 9819) (protein)
# chain: MYLYTDFDQQLINQRVAQFRDQTERYLAGKLTEDEYRPLRLQNGLYVQRYAPMLRIAVPYGLMNTKQLRKIAEIATEYDRGYAHVSTRQNIQLNWPALEDVPDILEELATVQMHAVQTSGNCIRNTTTDQFAGVVAGEIADPRPTCELIRQWSTFHPEFAFLPRKFKIAVSALAETDRAATAFHDIGVYIVRNEAGEIGYKIMAGGGLGRTPIIGSVIRDFLPREDLIAYLEATLRVYNLHGRRDNKYKARIKILVKALTPEVFAQKVEAEFEHTREALKIQPEILKKLDEEFTPFDYQDLEDQDFTALFAEYPKFKQWFNVNTNAHKVKGYRIVTISLKRAGIAPGDMTSEEMNLIADLADKYTFGEFRTTHEQNISLVDVPQKDLFELWQTLEQNDMARAHIGFITDIICCPGGDFCSLANAKSIPISEAITRRFEDLDTIYNLGELDLNISGCMNACGHHHVGNIGILGVDKKGAEFYQITLGGNADHDASIGDILGPSFAADAVPDVIEEILNTYLDLRTEGERFIDTYRRVGIQPFKERAYA
# notes: whole gene in pET28a (BamHI/XhoI), N-terminal His tag, E. coli BL21(DE3), Ni-NTA; predicted 61929 Da
# Substrate: O=NO
# Assay: purified protein
# Format: biochemical, Acinetobacter haemolyticus
# Details: dithionite-reduced methyl viologen as electron donor, 30 °C, optimum pH (printed as 7.5 in abstract, 7 in results; assay PBS pH 7.0), NaNO2 0.51-2.17 mmol/L
protein,measurement,value
B1,Km,1530 µM
